Laboratory results reported in US20110171215A1 (ISIS INNOVATION, published 2011).

B1: Clone 2 anti-PD-1 antibody (antibody, V domains shown)
VH: QVQLQQPGAELVKPGASVKLSCKASGYTFTTYYLYWVRQRPGQGLEWIGGINPSNGGTNFNEKFKSKATLTVDKSSSTAYMQLNSLTSEDSAVYYCTRRDYRYDRGFDYWGQGTSVTV
VL: DIVLTQSPASLAVSLGQRATISCRASKSVSTSGFNYIHWYQQKPGQPPKLLIYLASNLESGVPARFSGSGSGTDFTLNIHPVEDEDAATYYCQHSRELPLTFGAGTKLEIK
notes: The printed VH ends at ...TV
B2: Clone 19 anti-PD-1 antibody (antibody, IgG1, V domains shown)
VH: QVQLQQSGAELVKPGASVKMSCKAFGYTFTTYPIEWMKQNHGKSLEWIGNFHPYNDDTKYNEKFKGKAKLTVEKSSTTVYLELSRLTSDDSAVYYCARENYGSHGGFVYWGQGTLVTV
VL: ENVLTQSPAIMSASPGEKVTMTCRASSSVISSYLHWYQQKSGASPKLWIYSTSNLASGVPDRFSGSGSGTSYSLTISSVEAEDAATYYCQQYNGYPLTFGAGTKLEIK
notes: The printed VH ends at ...TV

Legend:
[1] = target: T1, human PD-1 extracellular region with the transmembrane and intracellular regions of murine CD28, expressed on … (human; mouse, UniProt Q15116 25-170; P31041 151-218, limits assumed); test: flow cytometry on transfected HEK 293T cells
T1 construct: extracellular domain;domain: transmembrane and intracellular regions; also called human PD-1 transfectants
T1 sequence (Q15116 other isoform, or with tags, fused parts or gaps limits assumed, change not shown): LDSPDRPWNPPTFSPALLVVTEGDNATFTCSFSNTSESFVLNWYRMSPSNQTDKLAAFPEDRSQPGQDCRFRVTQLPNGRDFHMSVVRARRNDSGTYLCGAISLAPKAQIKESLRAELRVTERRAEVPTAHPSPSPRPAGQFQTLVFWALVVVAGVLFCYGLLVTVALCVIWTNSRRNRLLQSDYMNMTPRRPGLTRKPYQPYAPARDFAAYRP
Experimental: (§1) Constructs encoding the human extracellular region of PD-1 with the transmembrane and intracellular regions of murine CD28 were cloned into the bi-cistronic mammalian expression vector pGFP2-n2 from BioSignal Packard Ltd, which also encodes GFP. Mutant constructs varying by one amino acid were prepared using the “drastic” mutagenesis approach (Davis el al. Proc Natl Acad Sci USA. 95, 5490-4 (1998)). Plasmids (2 μg/well) were transfected into HEK-293T cells in 6 well plates using Genejuice transfection reagent (Novagen; 6 μl/well). Mock and no-transfection controls were included with each experiment. Cells were harvested at 18-24 hours and stained with anti-PD1 antibodies or isotype controls at 10 μg/ml in PBS-azide for 1 h at 4° C. Cells were washed with PBS-Azide, pelleted at 1500 rpm/5 min and primary antibodies were labelled with Alexa647-conjugated donkey anti-mouse IgG (5 μg/ml) in PBS-Azide for 30 min at 4° C. Cells were washed as above and resuspended in 200 μl PBS-Azide before being analysed at the flow cytometer. Propidium iodide (5 μg/ml) was added immediately prior to analysis to identify dead cells. GFP-positive (transfected) viable cells were gated and analysed for binding of anti-PD1 antibodies. […]

[2] = target: T2, human PD-1 extracellular region / murine CD28 chimera, mutant R118D, on HEK-293T cells (human; mouse, UniProt Q15116 25-170; P31041 151-218, R118D); test: flow cytometry on transfected HEK-293T cells
T2 construct: extracellular domain;domain: transmembrane and intracellular regions; Single-residue 'drastic' mutant of m4
T2 sequence (Q15116 other isoform, or with tags, fused parts or gaps R118D | R118D R118D): as the sequence (Q15116 other isoform, or with tags, fused parts or gaps limits assumed, change not shown) above, with R119D counted along it
Experimental: as §1

[3] = target: T3, human PD-1 extracellular region / murine CD28 chimera, mutant L16R, on HEK-293T cells (human; mouse, UniProt Q15116 25-170; P31041 151-218, L16R); test: flow cytometry on transfected HEK-293T cells
T3 construct: extracellular domain;domain: transmembrane and intracellular regions; Single-residue 'drastic' mutant of m4; constructs elsewhere are counted on the mature polypeptide
T3 sequence (Q15116 other isoform, or with tags, fused parts or gaps L16R | L16R L16R): as the sequence (Q15116 other isoform, or with tags, fused parts or gaps limits assumed, change not shown) above, with L17R counted along it
Experimental: as §1

Binder | binding result [1] | binding result [2] | binding result [3]
B1 | binds | – | –
B2 | – | no binding (tested: 10 µg/ml) | no binding (tested: 10 µg/ml)
